Measured values from PMC2895232.
Each block holds one substance with its values, some of them ahead of it.

How the values were obtained:
[1] = biological target: ParBΔ121–183 of Pseudomonas aeruginosa (Pseudomonas aeruginosa); assay: cross-linking; glutaraldehyde cross-linking in vitro of purified His6-tagged ParB proteins to determine the oligomeric state; WT ParB as the control
[2] = test system: ParB1-229 (Pseudomonas aeruginosa PAO1161); assay: EMSA; conditions: not given in the material
[3] = biological target: wild-type ParB of Pseudomonas aeruginosa (Pseudomonas aeruginosa); assay: cross-linking; glutaraldehyde cross-linking in vitro of purified His6-tagged ParB proteins to determine the oligomeric state; WT ParB as the control

Substance: ParBΔ121–183 of Pseudomonas aeruginosa (natural protein)
stoichiometry N [1]: 2

Substance: parS
binding signal (fold of WT affinity (>5-fold decreased)) [2]: < 0.2

stoichiometry N [3]: 2
Substance: wild-type ParB of Pseudomonas aeruginosa (natural protein)
